Read-outs that look alike come from different tables or passages of the source. Square brackets hold non-standard residues; d marks the D form. Peptide text beside a SMILES is read from it. * marks the point of attachment. HYNIC = NNc1ccc(C(=O)*)cn1; AEEA = NCCOCCOCC(=O)O
Assay: In vivo biodistribution study (ex vivo organ counting)
Set-up: species or system mice
Details: female, mouse, iv, total radioactivity, mean ± SD, n = 3; for tissue to tissue ratio at 0.5 h: 0.5h after i.v.; for tissue to tissue ratio at 1 h: 1h after i.v.; for tissue to tissue ratio at 2 h: 2h after i.v.
Method: All animal experiments were approved by Jilin University Health Science Center Animal Care and Use Committee. Human breast carcinoma cell line MDA-MB-231 with high MT1-MMP expression and human lung adenocarcinomaepithelial cell line A549 with low MT1-MMP expression were cultured in DMEM medium containing 10% (v/v) fetal bovine serum (Invitrogen) supplemented with penicillin (100 μg/mL) and streptomycin (100 μg/mL) at 37°C with 5% CO2. MDA-MB-231 and A549 tumor models were established by subcutaneous injection of 5×10^6 cells into the upper right front flank of female athymic nude mice (Department of Experimental Animal, Peking University Health Science Center). Tumor growth was monitored by caliper measurements three times a week after the tumors are palpable. The mice were used for SPET/CT imaging when the tumor volume reached about 200 mm3 (about 14 days after tumor inoculations). The tumor volume was determined as the formula: V = a × (b^2)/2, where a and b are the length and width of each tumor in mm respectively. During the injection and image acquisition process, the mice were anesthetized with 2.5% isoflurane in oxygen delivered at a flow rate of 1.5 L/min.
Animals were divided into 4 groups (n = 3) for 4 time points with approximately equal distribution of tumor sizes on the day before the study. At 0.5, 1, 2, and 4 h after intravenous administration of [^99mTc]-(HYNIC-AF7P)(tricine)(TPPTS), MDA-MB-231 tumor bearing mice were euthanized. […] The organ uptake was calculated as a percentage of the injected dose per gram of wet tissue (%ID/g).

[1] = athymic nude, tumor and intestine, read-out: Tumor/Intestine ratio
[2] = athymic nude, tumor and pancreas, read-out: Tumor/Pancreas ratio
[3] = athymic nude, tumor/blood, read-out: Tumor/Blood ratio
[4] = athymic nude, tumor/bone, read-out: Tumor/Bone ratio
[5] = athymic nude, tumor/heart, read-out: Tumor/Heart ratio
[6] = athymic nude, tumor/kidney, read-out: Tumor/Kidney ratio
[7] = athymic nude, tumor/liver, read-out: Tumor/Liver ratio
[8] = athymic nude, tumor/lung, read-out: Tumor/Lung ratio
[9] = athymic nude, tumor/muscle, read-out: Tumor/Muscle ratio
[10] = athymic nude, tumor/spleen, read-out: Tumor/Spleen ratio

CC(C)C[C@H](NC(=O)[C@H](Cc1ccccc1)NC(=O)[C@@H](NC(=O)[C@H](CCCCN)NC(=O)[C@@H](NC(=O)[C@H](CC(N)=O)NC(=O)[C@H](Cc1c[nH]cn1)NC(=O)[C@H](CC(C)C)NC(=O)[C@H](Cc1c[nH]cn1)NC(=O)[C@H](CCCCN)NC(=O)[C@H](Cc1c[nH]c2ccccc12)NC(=O)[C@H](Cc1c[nH]cn1)NC(=O)c1ccc(NN)nc1)[C@@H](C)O)[C@@H](C)O)C(=O)NCCOCCOCC(=O)O [[^99mTc]-(HYNIC-AF7P)(tricine)(TPPTS), metal not drawn] ({HYNIC}-HWKHLHNTKTFL[AEEA]-OH)
tissue uptake at 4 h (athymic nude, pancreas, 4h after i.v., read-out: Pancreas uptake): 0.19 ± 0.02 %ID/g | tissue to tissue ratio at 0.5 h [1]: 1.76 ± 0.1 | tissue to tissue ratio at 1 h [1]: 1.61 ± 0.17 | tissue to tissue ratio at 2 h [1]: 1.44 ± 0.13 | tissue to tissue ratio at 4 h (athymic nude, tumor and intestine, 4h after i.v., read-out: Tumor/Intestine ratio): 0.93 ± 0.12 | tissue to tissue ratio at 4 h (athymic nude, tumor and liver, 4h after i.v., read-out: Tumor/Liver ratio): 0.41 ± 0.04 | tissue to tissue ratio at 0.5 h [2]: 4.4 ± 0.43 | tissue to tissue ratio at 1 h [2]: 4.98 ± 0.16 | tissue to tissue ratio at 2 h [2]: 6.28 ± 0.7 | tissue to tissue ratio at 4 h (athymic nude, tumor and pancreas, 4h after i.v., read-out: Tumor/Pancreas ratio): 5.67 ± 0.82 | tissue to tissue ratio at 0.5 h [3]: 9.27 ± 0.28 | tissue to tissue ratio at 1 h [3]: 9.36 ± 0.73 | tissue to tissue ratio at 2 h [3]: 11.1 ± 0.74 | tissue to tissue ratio at 4 h (athymic nude, tumor/blood, 4h after i.v., read-out: Tumor/Blood ratio): 5.54 ± 0.55 | tissue to tissue ratio at 0.5 h [4]: 4.21 ± 0.2 | tissue to tissue ratio at 1 h [4]: 4.5 ± 0.51 | tissue to tissue ratio at 2 h [4]: 5.01 ± 0.38 | tissue to tissue ratio at 4 h (athymic nude, tumor/bone, 4h after i.v., read-out: Tumor/Bone ratio): 2.6 ± 0.15 | tissue to tissue ratio at 0.5 h [5]: 1.49 ± 0.23 | tissue to tissue ratio at 1 h [5]: 1.56 ± 0.26 | tissue to tissue ratio at 2 h [5]: 2.23 ± 0.2 | tissue to tissue ratio at 4 h (athymic nude, tumor/heart, 4h after i.v., read-out: Tumor/Heart ratio): 1.66 ± 0.21 | tissue to tissue ratio at 0.5 h [6]: 0.38 ± 0.01 | tissue to tissue ratio at 1 h [6]: 0.35 ± 0.01 | tissue to tissue ratio at 2 h [6]: 0.45 ± 0.04 | tissue to tissue ratio at 4 h (athymic nude, tumor/kidney, 4h after i.v., read-out: Tumor/Kidney ratio): 0.24 ± 0.02 | tissue to tissue ratio at 0.5 h [7]: 0.65 ± 0.06 | tissue to tissue ratio at 1 h [7]: 0.67 ± 0.07 | tissue to tissue ratio at 2 h [7]: 0.75 ± 0.05 | tissue to tissue ratio at 0.5 h [8]: 1.6 ± 0.18 | tissue to tissue ratio at 1 h [8]: 1.81 ± 0.34 | tissue to tissue ratio at 2 h [8]: 2.17 ± 0.14 | tissue to tissue ratio at 4 h (athymic nude, tumor/lung, 4h after i.v., read-out: Tumor/Lung ratio): 1.51 ± 0.3 | tissue to tissue ratio at 0.5 h [9]: 3.77 ± 0.42 | tissue to tissue ratio at 1 h [9]: 3.86 ± 0.75 | tissue to tissue ratio at 2 h [9]: 4.17 ± 0.49 | tissue to tissue ratio at 4 h (athymic nude, tumor/muscle, 4h after i.v., read-out: Tumor/Muscle ratio): 2.02 ± 0.09 | tissue to tissue ratio at 0.5 h [10]: 3.75 ± 0.46 | tissue to tissue ratio at 1 h [10]: 3.66 ± 0.58 | tissue to tissue ratio at 2 h [10]: 3.94 ± 0.57 | tissue uptake at 0.5 h (tumor, 0.5 h after i.v. administration, MDA-MB-231 xenograft, BALB/c nude mice, read-out: Tumor uptake (biodistribution)): 3.37 ± 0.27 %ID/g | tissue uptake at 1 h (tumor, 1 h after i.v. administration, MDA-MB-231 xenograft, BALB/c nude mice, read-out: Tumor uptake (biodistribution)): 2.59 ± 0.21 %ID/g | tissue uptake at 2 h (tumor, 2 h after i.v. administration, MDA-MB-231 xenograft, BALB/c nude mice, read-out: Tumor uptake (biodistribution)): 2.18 ± 0.11 %ID/g | tissue uptake at 4 h (tumor, 4 h after i.v. administration, MDA-MB-231 xenograft, BALB/c nude mice, read-out: Tumor uptake (biodistribution)): 1.05 ± 0.07 %ID/g

Reference: paper PMC4593522, “Development of a Radiolabeled Peptide-Based Probe Targeting MT1-MMP for Breast Cancer Detection” (PLoS ONE, 2015)
